The nature of the data set: Constant-force optical tweezers folding assay of the wild-type aptamer in 2,6-diaminopurine (DAP). It is filed as physicochemical. The settings on record: 3 mM Mg^2+; for Folding rate kf / Transition distance ΔX / Unfolding rate ku / ΔG (0): 250 uM DAP; for ΔG (0): zero force. An excerpt:
Guanine binds to the aptamer via nucleobases U^22, U^47, U^51 and C^74 in the junction J1/2, J2/3 and J3/1. The hydrogen bonding between C^74 with the functional group in the 6th position of the purine is deterministic for ligand recognition. The purine analog 2,6-diaminopurine (DAP) differs from guanine in having an amino group in the 6th position (FIG. 13), and thus disrupts the hydrogen bonding pattern. […] In order to investigate if the loop-loop dynamics in the guanine-riboswitch are affected with a change in the ligand, mechanical assays in the presence of DAP were performed. […] Furthermore, a near similar L2-L3 kinetics highlighted that the tertiary and the secondary interactions remained unaffected by replacing guanine with DAP (Table 1).
In a constant-force (CF) experiment, the RNA is held at a preset force through feedback control. The preset force typically fluctuated around the mean with a standard deviation ±0.15 pN. In this mode, data is recorded from 4-40 kHz to capture the fast intermediates. The plots are shown as extension vs. time (as in FIG. 6A). In force-jump (FJ) assay, the force is suddenly jumped from one force to another, and then held constant thereafter, as shown in FIGS. 23A-B.
All FR, CF and FJ experiments were carried out at an ambient temperature, 25±0.5° C. The buffer in the microfluidics contained 10 mM Tris-HCl, pH 7.5 at 25° C., 250 mM NaCl, 3 mM MgCl2, and purine concentrations as indicated in wild-type aptamer. Unless stated otherwise, Mg^2+ concentration in the buffer was maintained at 3 mM in all experiments. The buffer in mutant m1 contained 5 mm Mg^2+ and 1 μM G, and in m3 contained 5 mM Mg^2+ and 200 nM Guanine. For the remaining m2, m4, m5 and m6 mutants, the buffer in single-molecule experiments was supplemented only with 3 mM Mg^2+ and 200 nM Guanine.

Where [1] appears, read: transition BA (P1 folding), F 8.5 pN.
The mark [2] stands for this setting: transition C′B (L2-L3 folding), F 8.5 pN.
The mark [3] stands for this setting: transition DC (P3 folding), F 12.0 pN.
Setting [4] is: transition ED (P2 folding), F 13.5 pN.

Experimental findings from patent US11905559B2, “Materials and methods for controlling gene expression” (priority 2016, dated 2024) are described below.

B1: wt: 69-nucleotide full-length wild-type guanine sensing aptamer RNA sequence from xpt-pbuX operon in B. subtilis (SEQ ID NO: 1) (nucleic acid)
chain: CACUCAUAUAAUCGCGUGGAUAUGGCACGCAAGUUUCUACCGGGCACCGUAAAUGUCCGACUAUGGGUG
modifications: RNA, backbone and methylation of C not given here
Regarding B1, the “Equilibrium force F^eq” value is, setting by setting: (transition BA (P1 folding), 250 uM DAP (rates at 8.5 pN)) 9.8 ± 0.1 pN; (transition C′B (L2-L3 folding), 250 uM DAP (rates at 8.5 pN)) 8.7 ± 0.2 pN; (transition DC (P3 folding), 250 uM DAP (rates at 12.0 pN)) 12.3 ± 0.02 pN; (transition ED (P2 folding), 250 uM DAP (rates at 13.5 pN)) 13.6 ± 0.02 pN. Moreover, the Folding rate kf stood at 0.29 ± 0.02 s⁻¹ under setting [1], 0.96 ± 0.08 s⁻¹ under setting [2], 22.0 ± 0.6 s⁻¹ under setting [3] and 14.7 ± 0.4 s⁻¹ under setting [4]. In addition, the “Transition distance ΔX” value runs as follows: under setting [1], 9.7 ± 0.2 nm; under setting [2], 3.6 ± 0.2 nm; under setting [3], 7.5 ± 0.3 nm; under setting [4], 7.0 ± 0.2 nm. Moreover, the Unfolding rate ku reads like this: under setting [1], 0.023 ± 0.004 s⁻¹; under setting [2], 0.8 ± 0.06 s⁻¹; under setting [3], 14.3 ± 0.4 s⁻¹; under setting [4], 13.4 ± 0.4 s⁻¹. Also, the “ΔG (0)” value runs as follows: (transition BA (P1 folding), from data at 8.5 pN) −16.6 ± 0.5 kBT; (transition C′B (L2-L3 folding), from data at 8.5 pN) −7.6 ± 0.4 kBT; (transition DC (P3 folding), from data at 12.0 pN) −15.5 ± 0.9 kBT; (transition ED (P2 folding), from data at 13.5 pN) −16.3 ± 0.7 kBT.
